Experiment [1] addresses T1, biotinylated B Lymphocyte Stimulator, soluble form (human, UniProt Q9Y275 134-285, biotinylated with NHS-biotin, molar ratio 20:1 biotin:protein).
T1 construct: also called bio-B Lymphocyte Stimulator; free B Lymphocyte Stimulator
In words: phage scFv, receptor binding inhibition on IM9 cells. How it is done:
All of the unique phage scFvs from panel 2 were assessed for their ability to inhibit B Lymphocyte Stimulator binding to its cognate receptor on IM9 cells. The biotinylation of B Lymphocyte Stimulator, maintenance of IM9 cells and receptor binding inhibition assay were performed as described in Example 3.

Experiment [2] addresses T2, B Lymphocyte Stimulator, soluble form (human) (human, UniProt Q9Y275 134-285, biotinylated with NHS-biotin where used as biotinylated B Lymphocyte Stimulator).
T2 construct: Coated on plastic, captured on streptavidin plates, amine-coupled to a CM5 chip or free in solution, depending on the assay; also called BLyS; immobilized B Lymphocyte Stimulator
In words: phage ELISA. For orientation: ELISA stands for enzyme-linked immunosorbent assay.

The target of a further experiment is LIGHT (human, UniProt O43557 74-240, limits assumed). In words: phage ELISA.
Another experiment deals with T3, TNF-alpha (human, UniProt P01375 77-233).
T3 construct: also called TNFα; TNF-α
In words: phage ELISA.

The next experiment has as its target T4, TNF-beta (human, UniProt P01374 35-205).
T4 construct: also called TNFβ; Tumour Necrosis Factor-beta
T4 sequence (looked up): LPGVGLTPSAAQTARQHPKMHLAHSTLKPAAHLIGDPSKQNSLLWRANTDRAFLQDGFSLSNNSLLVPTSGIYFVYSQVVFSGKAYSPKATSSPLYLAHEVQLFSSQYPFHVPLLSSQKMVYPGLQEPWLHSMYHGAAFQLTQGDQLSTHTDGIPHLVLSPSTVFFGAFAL
Briefly: phage ELISA.

A further experiment has as its target T5, TRAIL (human, UniProt P50591 114-281).
T5 construct: also called TNF-related apoptosis inducing ligand
In words: phage ELISA.

Substitutions are numbered along the chain they refer to.

Chain of LIGHT (O43557 74-240 limits assumed): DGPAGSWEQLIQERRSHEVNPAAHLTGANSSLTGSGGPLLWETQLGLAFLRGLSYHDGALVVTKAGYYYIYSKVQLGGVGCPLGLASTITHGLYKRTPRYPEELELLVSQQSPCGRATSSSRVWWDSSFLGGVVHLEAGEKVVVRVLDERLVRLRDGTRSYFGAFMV
T5 sequence (P50591 114-281 limits assumed): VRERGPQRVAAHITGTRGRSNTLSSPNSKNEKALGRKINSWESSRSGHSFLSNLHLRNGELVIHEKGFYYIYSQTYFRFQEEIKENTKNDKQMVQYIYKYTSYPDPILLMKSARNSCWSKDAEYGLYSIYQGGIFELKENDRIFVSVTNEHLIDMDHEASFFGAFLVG
T3 sequence (P01375 77-233 limits assumed): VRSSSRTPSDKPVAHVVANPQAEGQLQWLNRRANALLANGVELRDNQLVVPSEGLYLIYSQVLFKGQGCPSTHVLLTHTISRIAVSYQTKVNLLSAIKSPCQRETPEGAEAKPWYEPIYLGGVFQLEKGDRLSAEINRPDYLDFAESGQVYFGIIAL

B1: I068C08 (scFv)
scFv: QVQLQQSGAEVKKPGSSVKVSCQASGGSFSREGISWVRQAPGHGLEWMGRIIPVLGVADYAQKFQGRVKISVDRLTSVAYMELTSLRFEDTAVYYCAREGMNDFINSHHYYTMDAWGQGTLVTVSSGGGGSGGGGSGGGGSAQAVLTQPSSVSGAPGQRVTISCTGSSSNIGAGYDVHWYQQLPGTAPKLLIYGNSNRPSGVPDRFSGSKSGTSASLAITGLQAEDEADYYCQSYDSSLSGSVFGGGTKLTVLG
With B1, the binding result in experiment [1] is on record as “binds”.

B2: I065D04 (scFv)
scFv: QVQLQESGPGLVKPSETLSLTCTVSGGSISSGYYWGWVRQPPGQGLEWIGSIYHSGSTYHNPSLKSRVTISMDTSKNQFSLNLNSVTAADTAVYYCARGKGYYDILTGYYRDNWFDPWGRGTLVTVSSGGGGSGGGGSGGGGSQSVLTQPASVSGSPGQSITISCTGTSSDVGGYNYVSWYQQHPGKAPKLMIYEGSKRPSGVSNRFSGSKSGNTASLTISGLQAEDEADYYCSSYTTRSTRVFGGGTKLTVLG
Take B2: the binding result in experiment [1] is “binds”.

B3: I078D08 (scFv)
scFv: QVNLRESGGGLVQPGGSLRLSCAASGFTFSSYWMSWVRQAPGKGLEWVANIKQDGSEKYYVDSVKGRFTISRDNSKNTLYLQMNSLRAEDTAVYYCARDAQSYYDILTGYQSYAFDIWGQGTTVTVSSGGGGSGGGGSGGGGSSELTQDPAVSVALGQTVRITCQGDSLRSYYTNWFQQKPGQAPLLVVYAKNKRPSGIPDRFSGSSSGNTASLTITGAQAEDEADYYCHSRDSSGNHVLFGGGTKLTVLG
B3: the binding result in experiment [1] was “binds”.

B4: I003C06 (scFv)
scFv: QVQLVQSGAEVKKPGSSVKVSCRASGGSFNHAISWVRQAPGRGLEWMGGILPMYGTANYAQKFQGRVTITADKLTNTVYMDLSRLRYEDTAVYYCARELGLSIVGATTGALDMWGKGTLVTVSSGGGGSGGGGSGGGGSALPVLTQPPSVSVAPGQTATLTCGGTNFGRQSVHWYQQKPGQAPVLAIYHDDVRPSGIPERLSGSKSGNTATLTISRVEAGDEAAYYCQVWDSGSDVVVFGGGTKLTVLG
Consider B4, for which the binding result in experiment [1] is given as “binds”.

B5: I068F03 (scFv)
scFv: EVQLVQSGADVKKPGASVKVSCKASHYPFTTYGVSWVRQAPGQGLEWMGWISNYNGHTRYAPKFQGRVTLTTDTLTNTAFMELKSLTSDDTAIYYCARAGNEYGHTERPADYWGKGTMVTVSSGGGGSGGGGSGGGGSAQAVLTQPSSVSGAPGQRVTISCTGSSSNIGAGYDVHWYQQLPGTTPKLLISRNNNRPPGVPDRFSGSKSGTSASLAITGLQAEDEADYYCQSYDTTLRGWVFGGGTKVTVLG
Consider B5, for which the binding result in experiment [1] is “binds”.

B6: I030A10 (scFv)
scFv: QVQLVQSGAEVKKPGSSVKVSCRASGGSFNHAISWVRQAPGRGLEWMGGILPMYGTANYAQKFQGRVTITADKLTNTVYMDLSRLRYEDTAVYYCARELGLSIVGATTGALDMWGRGTLVTVSSGGGGSGGGGSGGGGSAQAVLTQPSSVSGAPGQRVIISCTGSSSNIGPDYDVHWYQQLPGTAPKLLIYGNNNRPSGVPDRFSGSKSGTSASLAITGLQAEDEAHYYCQSYGSSLSGVVFGGGTKVTVLG
Regarding B6, the binding result in experiment [1] was “binds”.

B7: I075A02 (scFv)
scFv: QVQLVQSGAEVKKPGSSVKVSCRASGGSFNHAISWVRQAPGRGLEWMGGILPMYGTANYAQKFQGRVTITADKLTNTVYMDLSRLRYEDTAVYYCARELGLSIVGATTGALDMWGRGTLVTVSSGGGGSGGGGSGGGGSAQSVVTQPPSASGTPGQRVTVSCSGGRSNIGSNTVSWYQQLPGTAPKLLIYSNDERPSGVPDRFSGSNSGTSASLAISGLQSEDEADYYCAAWDDSLNGVAFGGGTKLTVLG
For B7, the binding result in experiment [1] was “binds”.

B8: I069B07 (scFv)
scFv: QVQLVQSGAEVKKPGASVKVSCKASGYTFTSYGISWVRQAPGQGLEWMGWISAYNGNTNYAQKLQGRVTMTTDTSTSTAYMELRSLRSEDTAVYYCARMEYDILTGYYGGYFDYWGQGTMVTVSSGGGGSGGGGSGGGGSQSVLTQPASVSGSPGQSITISCTGTSSDVGGYNYVSWYQQHPGKAPKLMIYEGSKRPSGVSNRFSGSKSGNTASLTISGLQAEDEADYYCSSYTTRSTRVFGGGTKLTVLG
With B8, the binding result in experiment [2] was “binds”; with LIGHT, “no binding”; in the experiment with TNF-alpha it was “no binding”; with TNF-beta it was “no binding”; in the experiment with TRAIL, “no binding”.

B9: I069B07 (scFv)
scFv: B8 scFv
With B9, the binding result in experiment [1] is recorded as “binds”.

B10: I073F04 (scFv)
scFv: QVQLQQSGAEVKKPGSSVKVSCKASGGTFRSYAFSWVRQAPGQGLEWMGYIVPVFGTATYAQNFQGRVTITADELTTTAFMELSSLTSEDTAVYYCARSLATRPLGMDVWGRGTTVTVSSGGGGSGGGGSGGGGSQSVLTQPASVSGSPGQSITISCTGTSSDVGGYNYVSWYQQHPGKAPKLMIYEGSKRPSGVSNRFSGSKSGNTASLTISGLQAEDEADYYCSSYTTRSTRVFGGGTKLTVLG
Regarding B10, the binding result in experiment [1] is given as “binds”.

B11: I078D02 (scFv)
scFv: QVQLQQSGAEVKKPGASVKVSCKASGYTFTSYGISWVRQAPGQGLEWMGWISAYNGNTNYAQKLQGRVTMTTDTSTSTAYMELRSLRSDDTAVYYCARVYYDILTGYNLFFDYWGKGTMVTVSSGGGGSGGGGSGGGGSQSVLTQPASVSGSPGQSITISCTGTSSDVGGYNYVSWYQQHPGKAPKLMIYEGSKRPSGVSNRFSGSKSGNTASLTISGLQAEDEADYYCSSYTTRSTRVFGGGTKLTVLG
Consider B11, for which the binding result in experiment [1] is on record as “binds”.

B12: I078H08 (scFv)
scFv: B11 scFv with Q5V, G8A, K116R, M119T
Take B12: the binding result in experiment [1] is recorded as “binds”.

B13: I075G01 (scFv)
scFv: QVQLVQSGAEVKKPGASVKVSCKTSGYTFTGYNINWVRQAPGQGLEWMGWVSPSNGDTSYAQTFQGRVTMTRDTSISTAYMELSSLKSDDTAVYYCARDHFDTLTGYFRRLDSWGQGTLVTVSSGGGGSGGGGSGGGGSALSSELTQDPEVSVALGQTVTITCQGDSLITHYASWFQQKPGQAPLLVFYSKDKRPSGIPDRFSGSYSGNTASLTITGAQAEDEADYYCNSRDSRGKNHVAFGGGTKLTVLG
As for B13, the binding result in experiment [1] is listed as “binds”.

B14: I075F12 (scFv)
scFv: QVQLVQSGAEVKKPGSSVKVSCKASGGTVSSRTISWVRQAPGQGLEWMGGSLPPSGAPIYAQKFQGRVAITADALTNTAFMELRSLKSDDTAVYYCARDQGRYLDLWGQGTMVTVSSGGGGSGGGGSGGGGSAQAVLTQPSSASGTPGQRATISCSGSSSDIGINAVNWYKQLPRTAPKLLIYRNNQRPSGVPDRFSGSKSGTSASLAIIGLQSEDEADYYCATWDDSLTAYVFGTGTKVTVLG
With B14, the binding result in experiment [1] is on record as “binds”.

B15: I068B04 (scFv)
scFv: QVQLVQSGAEVKKPGSSVKVSCKASGGTVSSRTISWVRQAPGQGLEWMGGSLPPSGAPIYAQKFQGRVAITADALTNTAFMELRSLKSDDTAVYYCARDQGRYLDLWGRGTLVTVSSGGGGSGGGGSGGGGSALPVLTQPPSASATPGQRVTISCSGSSSNIGSNYVYWYQQLPGTAPKVLIYRNNQRPSGVPDRFSGSRSGTSASLAISGLRSEDEADYYCATWDDSLSGPVFGGGTKVTVLG
B15: the binding result in experiment [1] is listed as “binds”.

B16: I071B03 (scFv)
scFv: QVQLQQSGAEVKKPGASVKVSCKASGYTFTKYTMHWVRQAPGQGPEWMGWINGGSGDTKYSRKFQGRVTITKDTSASAAYMELSSLGSEDTALYYCARATYDPLTGYSFDGFDIWGQGTMVTVSSGGGGSGGGGSGGGGSQSVLTQPASVSGSPGQSITISCTGTSSDVGGYNYVSWYQQHPGKAPKLMIYEGSKRPSGVSNRFSGSKSGNTASLTISGLQAEDEADYYCSSYTTRSTRVFGGGTKLTVLD
B16: in experiment [1], the binding result is given as “binds”.

B17: I026C04 (scFv)
scFv: QVQLVQSGAEVKKPGSSVKVSCRASGGSFNHAISWVRQAPGRGLEWMGGILPMYGTANYAQKFQGRVTITADKLTNTVYMDLSRLRYEDTAVYYCARELGLSIVGATTGALDMWGKGTLVTVSSGGGGSGGGGSGGGGSAQSVLTQPPSVSAAPGQKVTISCSGSSSNIGNNYVSWYQQIPGTAPKLLIYENNKRPSGIPDRFSGSKSGASATLDITGLQTGDEADYYCGTWHSSQVVFGGGTKLTVLG
With B17, in experiment [1], the binding result is listed as “binds”.

B18: I025B06 (scFv)
scFv: B17 scFv with T213A
For the molecule B18, in experiment [1], the binding result is recorded as “binds”.

B19: I025B09 (scFv)
scFv: B17 scFv with Q3H
On to B19, for which the binding result in experiment [1] is “binds”.

Values taken from US20110293610A1 (published 2011).
